Data: FireProtDB (doi:10.1093/protein/15.10.817)

Conditions: Rattus norvegicus, pH 7, Thermal, CD, HEPES 10 mM, whole UniProt chain shown

B1: High mobility group protein B1 wild type, P63159 (protein)
chain: MGKGDPKKPRGKMSSYAFFVQTCREEHKKKHPDASVNFSEFSKKCSERWKTMSAKEKGKFEDMAKADKARYEREMKTYIPPKGETKKKFKDPNAPKRPPSAFFLFCSEYRPKIKGEHPGLSIGDVAKKLGEMWNNTAADDKQPYEKKAAKLKEKYEKDIAAYRAKGKPDAAKKGVVKAEKSKKKKEEEDDEEDEEDEEEEEEEEDEDEEEDDDDE
unfolding free energy (20 °C, NiSO4 1 mM): 2.7 kcal/mol
Tm (NiSO4 1 mM): 40.6 °C
unfolding enthalpy (van 't Hoff) (NiSO4 1 mM): 35.7 kcal/mol
Tm: 40.6 °C
unfolding enthalpy (van 't Hoff): 35.7 kcal/mol
